# B1: Retinal rod rhodopsin-sensitive cGMP 3',5'-cyclic phosphodiesterase subunit delta (Homo sapiens), O43924 (parent)
# chain: MSAKDERAREILRGFKLNWMNLRDAETGKILWQGTEDLSVPGVEHEARVPKKILKCKAVSRELNFSSTEQMEKFRLEQKVYFKGQCLEEWFFEFGFVIPNSTNTWQSLIEAAPESQMMPASVLTGNVIIETKFFDDDLLVSTSRVRLFYV
# partner: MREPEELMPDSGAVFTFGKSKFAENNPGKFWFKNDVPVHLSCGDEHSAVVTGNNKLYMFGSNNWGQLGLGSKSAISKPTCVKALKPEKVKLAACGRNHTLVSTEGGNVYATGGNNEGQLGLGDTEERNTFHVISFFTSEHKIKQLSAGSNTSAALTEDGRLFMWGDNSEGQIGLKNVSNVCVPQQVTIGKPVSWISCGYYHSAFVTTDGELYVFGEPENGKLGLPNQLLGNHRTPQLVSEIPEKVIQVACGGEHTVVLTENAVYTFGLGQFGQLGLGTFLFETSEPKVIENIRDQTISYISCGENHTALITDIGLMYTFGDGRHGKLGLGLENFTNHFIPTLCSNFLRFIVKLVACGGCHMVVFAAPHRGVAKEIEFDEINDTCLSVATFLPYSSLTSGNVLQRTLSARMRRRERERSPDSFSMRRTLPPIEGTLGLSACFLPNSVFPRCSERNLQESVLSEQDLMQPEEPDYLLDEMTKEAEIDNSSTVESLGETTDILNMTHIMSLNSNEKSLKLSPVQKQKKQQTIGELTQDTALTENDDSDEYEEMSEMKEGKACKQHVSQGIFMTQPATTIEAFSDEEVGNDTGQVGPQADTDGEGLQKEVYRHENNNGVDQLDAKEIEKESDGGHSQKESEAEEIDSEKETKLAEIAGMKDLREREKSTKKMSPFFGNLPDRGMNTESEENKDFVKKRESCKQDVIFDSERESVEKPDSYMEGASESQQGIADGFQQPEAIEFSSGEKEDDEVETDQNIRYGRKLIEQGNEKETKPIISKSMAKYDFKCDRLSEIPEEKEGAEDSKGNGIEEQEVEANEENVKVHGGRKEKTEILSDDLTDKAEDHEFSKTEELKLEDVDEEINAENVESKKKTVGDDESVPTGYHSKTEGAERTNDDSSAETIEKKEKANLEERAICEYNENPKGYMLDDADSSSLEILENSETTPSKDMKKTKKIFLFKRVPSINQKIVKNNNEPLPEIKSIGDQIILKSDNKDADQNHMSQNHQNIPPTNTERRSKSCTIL
# B2: X-linked retinitis pigmentosa GTPase regulator (Homo sapiens), Q92834 (parent)
# chain: B1 partner
# Variants of: B1
# Details: with rpgr_human RPGR, Q92834
row,Variant,effect of a mutation on the interaction
1,R48E,disrupting interaction

# Variants of: B2
# Details: with pde6d_human PDE6D, O43924
row,Variant,effect of a mutation on the interaction
1,E216R,disrupting interaction
